Residue numbers refer to the chain shown, from its start.
B1: 1789 AM39 IgG (antibody, V domains shown)
VH: EVQLVESGGGLVQPGGSLRLSCAASGFNVSYSSIHWVRQAPGKGLEWVASIRGAGSDTRYADSVKGRFTISADTSKNTAYLQMNSLRAEDTAVYYCARNYWGWYPFYYFAFDYWGQGTLVTVSS
VL: DIQMTQSPSSLSASVGDRVTITCRASQSVSSAVAWYQQKPGKAPKLLIYSASSLYSGVPSRFSGSRSGTDFTLTISSLQPEDFATYYCQQGWDYPITFGQGTKVEIKR
B2: 1789 AM42 IgG (antibody, V domains shown)
VH: B1 VH with S50K, A54G, G55H, S56Q, R59H
VL: B1 VL
B3: 1789 AM32 IgG (antibody, V domains shown)
VH: B1 VH with S50R, A54N, G55E, S56G, R59Y
VL: B1 VL

Each binder was assayed against T1, human NT5E expressed on MDA-MB-231 cells (human) (UniProt P21589) (assay: cell-based or functional assay).
T1 sequence (looked up): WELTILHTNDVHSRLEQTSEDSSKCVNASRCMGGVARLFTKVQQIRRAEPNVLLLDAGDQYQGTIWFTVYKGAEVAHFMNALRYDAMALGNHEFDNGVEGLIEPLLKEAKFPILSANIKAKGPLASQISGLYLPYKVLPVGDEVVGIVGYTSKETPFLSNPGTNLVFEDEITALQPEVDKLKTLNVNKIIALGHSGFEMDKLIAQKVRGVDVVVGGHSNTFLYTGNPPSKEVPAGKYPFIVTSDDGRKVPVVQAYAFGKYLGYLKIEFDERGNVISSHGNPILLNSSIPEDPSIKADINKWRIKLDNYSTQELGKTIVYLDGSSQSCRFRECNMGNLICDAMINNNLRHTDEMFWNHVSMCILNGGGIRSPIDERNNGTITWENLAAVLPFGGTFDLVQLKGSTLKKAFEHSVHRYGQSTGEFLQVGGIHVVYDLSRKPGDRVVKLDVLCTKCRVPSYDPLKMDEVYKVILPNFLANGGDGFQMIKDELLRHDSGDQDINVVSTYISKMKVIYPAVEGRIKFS
With B1 the IC50 of inhibition of NT5E activity on MDA-MB-231 cells, ATP was 2.5 nM and the IC50 of inhibition of NT5E activity on MDA-MB-231 cells, no ATP was 6.9 nM. B2 was tested, and the IC50 of inhibition of NT5E activity on MDA-MB-231 cells, ATP was 1.9 nM and the IC50 of inhibition of NT5E activity on MDA-MB-231 cells, no ATP was 5.4 nM. Binder B3 has an IC50 of inhibition of NT5E activity on MDA-MB-231 cells, ATP of 2.3 nM and an IC50 of inhibition of NT5E activity on MDA-MB-231 cells, no ATP of 5.6 nM.

These binders were tested against T2, murine NT5E expressed on 4T1 cells (murine) (UniProt Q61503) (assay: cell-based or functional assay).
T2 sequence (looked up): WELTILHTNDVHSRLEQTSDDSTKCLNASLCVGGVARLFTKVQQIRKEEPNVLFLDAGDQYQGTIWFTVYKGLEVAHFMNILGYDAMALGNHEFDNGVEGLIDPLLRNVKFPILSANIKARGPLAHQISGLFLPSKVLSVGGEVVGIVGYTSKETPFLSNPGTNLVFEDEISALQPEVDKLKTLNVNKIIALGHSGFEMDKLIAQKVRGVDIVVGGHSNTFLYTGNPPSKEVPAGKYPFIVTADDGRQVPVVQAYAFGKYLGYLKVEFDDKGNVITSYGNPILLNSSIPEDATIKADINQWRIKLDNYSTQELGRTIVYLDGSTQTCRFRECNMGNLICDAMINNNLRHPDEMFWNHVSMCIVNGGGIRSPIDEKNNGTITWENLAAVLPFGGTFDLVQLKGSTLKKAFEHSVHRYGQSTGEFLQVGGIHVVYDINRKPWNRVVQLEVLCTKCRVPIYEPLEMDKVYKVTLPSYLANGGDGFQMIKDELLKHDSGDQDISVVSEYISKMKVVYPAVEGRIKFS
Binder B1 has an IC50 of inhibition of NT5E activity on 4T1 cells, ATP of 12.7 nM. In the case of B2, the IC50 of inhibition of NT5E activity on 4T1 cells, ATP is reported as 8.8 nM. B3 was tested, and the IC50 of inhibition of NT5E activity on 4T1 cells, ATP was 9.1 nM.

From patent US20260022186A1
